Laboratory results from the supplement of paper PMC10567573.
± gives the standard deviation.

Test: protein stability index of a GFP-peptide fusion (GPS, HEK-293T) (PSI 1-6); higher = more stable
[1] = treatment: DMSO, c terminus: a fixed tail appended
[2] = treatment: MLN4924 1 uM, 8 h, c terminus: a fixed tail appended
[3] = treatment: DMSO, c terminus: native
[4] = treatment: MLN4924 1 uM, 8 h, c terminus: native
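Note: 24-mer peptide tiles fused after GFP, lentivirally expressed, FACS-sorted into six equal bins by GFP/DsRed ratio, decoded by Illumina sequencing, PSI is the read-weighted mean bin number.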

Sequence	protein stability index [1]	protein stability index [2]	protein stability index [3]	protein stability index [4]
EEEDQHMKLSLGGSEMGLSSHLQS [KLHL13]	4.95 ± 0.12	4.91 ± 0.14	–	–
EEEEGEEEELIRIFQEQQKKWQQY [FAM9B]	4.02 ± 0.23	4.13 ± 0.28	–	–
EEEKILRVKLEEDPDGEEGSSIPW [ZNF24]	5.56 ± 0.13	5.58 ± 0.26	–	–
EEFCEFVKSNTEQMREAFATAFSK [ZBED1]	3.76 ± 0.27	3.98 ± 0.32	–	–
EEKMETKTESSGIETEPTVHHLPL [EPB41L3]	5.56 ± 0.37	5.49 ± 0.27	–	–
EELMLVHSLEYIDLMETTQYMNEG [HDAC6]	3.5 ± 0.2	3.41 ± 0.3	–	–
EERVALNTEIEKLGRSIVSSPQGK [PKD2L1]	5.06 ± 0.16	5.15 ± 0.32	–	–
EETVTQDCLQLIADSETPTIQKGS [TNFSF13B]	5.53 ± 0.36	5.42 ± 0.14	–	–
EFDLSPLNLDIGQVYKETRLFLDG [AASDHPPT]	2.89 ± 0.28	2.96 ± 0.27	–	–
EGENYQKGERGEDSSEEKHLEEPG [CHGB]	5.63 ± 0.39	5.57 ± 0.32	–	–
EGGLYFERRPVAQSTDGARGKRGY [SPSB2]	4.55 ± 0.33	5.03 ± 0.11	–	–
EGLAFLVSCPEGRADCASESACSS [PWWP2B]	3.6 ± 0.41	3.71 ± 0.24	–	–
EGQRQAQEYEALLNIKVKLEAEIA [KRT18]	3.94 ± 0.18	4 ± 0.43	–	–
EHCGAVCFVKDNPQKSYFIRLYGL [WAS]	2.32 ± 0.35	2.31 ± 0.64	–	–
EHKGWYSWVLSMLYGFLLTFGFIT [CLPTM1]	2.4 ± 0.56	2.62 ± 0.37	–	–
EHKLKVVRDQISHCTVKLRQTTGL [TRIM9]	3.35 ± 0.13	3.24 ± 0.25	–	–
EHQNKRSPLHAAAEAGHVDICHML [EHMT1]	3.98 ± 0.27	3.94 ± 0.12	–	–
EIDEKVTDLVQFLLFKYQMKEPIT [MAGEA10]	2.35 ± 0.5	1.75 ± 0.3	–	–
EIEQYRLQREKEFKAKEAAALGSR [ATP6V1G1]	4.15 ± 0.21	3.77 ± 0.047	–	–
EIIEGNTKSHIMLVQRQMSVIEED [NECAB1]	3.56 ± 0.35	3.73 ± 0.26	–	–
EILEIDDLDAIVPAVKKLKVLSY [CEP70]	–	–	2.87 ± 0.8	3.1 ± 0.041
EILHQQNIHQLQNRLSELEVANKD [SASS6]	3.99 ± 0.19	4.13 ± 0.34	–	–

Sequence	protein stability index [1]	protein stability index [2]	protein stability index [3]	protein stability index [4]
EISLEDLIERERSALGPNVTKITL [ZC3H15]	2.77 ± 0.3	2.96 ± 0.48	–	–
EKALASILLQDHIRDLDVVVVSVA [ATL3]	2.52 ± 0.65	2.21 ± 0.53	–	–
EKEAKDLTELVQRRITYLQNPKDC [FUT8]	4.76 ± 0.17	4.9 ± 0.13	–	–
EKEKKNRKGKDKENGSVSSSETPP [EIF5]	5.58 ± 0.24	5.65 ± 0.13	–	–
EKIHEMVKKNSAKSMGLKKKAFVW [ACSBG2]	2.49 ± 0.2	2.45 ± 0.3	–	–
EKLAPSEITEELPSSQLMPVKKQL [ZNF396]	5.17 ± 0.15	5.14 ± 0.21	–	–
EKLTKITRTGPSAWETKKILAVSF [PCMTD2]	2.57 ± 0.57	2.37 ± 0.66	–	–
EKMTILQTYFRQNRDEVLDNLLAF [ATP6V1G1]	2.7 ± 0.46	2.632 ± 0.015	–	–
EKTGPQLTSRIKGDWIGLYRHFLK [DENND6A]	2.15 ± 0.34	2.08 ± 0.21	–	–
ELEGDVAEPLAGPACVTVILPSCV [KLHL14]	3.32 ± 0.54	3.14 ± 0.14	–	–
ELFRIGGKSPDTNYLFMGDYVDRG [PPP2CA]	2.49 ± 0.39	2.48 ± 0.11	–	–
ELFRLRGIKAQVALRLAELARRRR [NOP53]	2.36 ± 0.23	2.55 ± 0.22	–	–
ELFVREPTGRLPALVRWWNGIGAV [MYORG]	2.26 ± 0.38	2.4 ± 0.41	–	–
ELNHGRQGENQEHLVIAEMMELGS [FATE1]	4.3 ± 0.29	4.27 ± 0.36	–	–
ELQSQLSMKASLEGNLAETENRYC [KRT17]	3.93 ± 0.25	4.18 ± 0.14	–	–
ELSPPLSPASHVDVDLTIHGRHID [FOXJ1]	4.82 ± 0.18	4.84 ± 0.064	–	–
EMETLETSTKTDSEEGSWAQTLAY [PPFIA4]	5.04 ± 0.15	4.62 ± 0.069	–	–
ENELMISYLMFLQILVYFSFMSW [FAM98B]	–	–	3.17 ± 0.67	3.26 ± 0.33
EPEKIYAMPDPTVPDSDIKALTTL [ESRRG]	4.46 ± 0.15	4.6 ± 0.2	–	–
EPNNIVVLLQTSPYHVDSLLQLSD [TCF25]	2.44 ± 0.3	2.11 ± 0.26	–	–
EPPHNLFCAPGSWEWNELDHIMEI [SERTAD3]	2.93 ± 0.13	3.07 ± 0.25	–	–
EPYPSQLLKPIPEYSPEEESEPPA [TRAF3IP2]	5.45 ± 0.12	5.66 ± 0.18	–	–

Sequence	protein stability index [1]	protein stability index [2]	protein stability index [3]	protein stability index [4]
EQCIKLWLHALHLRQKGNRNTHKD [FEM1B]	2.39 ± 0.21	2.59 ± 0.39	–	–
EQIGHILVSWLPRLNAYRGYCSNQ [NET1]	2.67 ± 0.51	2.65 ± 0.18	–	–
ERAELAASLGLTQTQVKIWFQNKR [DLX1]	3.59 ± 0.34	3.87 ± 0.44	–	–
EREPVRGQCLDSTDQLEFTVEPRL [RTN2]	4.78 ± 0.2	4.71 ± 0.2	–	–
ERPLPNPEGLDSDFLAVLSDYPSP [SLA]	4.26 ± 0.39	4.58 ± 0.41	–	–
ERVWALAQEKAADVQARLNRSDHG [FCHSD1]	4.23 ± 0.13	4.23 ± 0.24	–	–
ESEDCKLPCNPCATTNASGNSCGP [KRT34]	5.21 ± 0.12	5.25 ± 0.17	–	–
ESKEPIEEEPTGAGLNKDKETEER [SDE2]	5.57 ± 0.34	5.7 ± 0.13	–	–
ESLPRSEIDEKVTDLVQFLLFKYQ [MAGEA10]	2.35 ± 0.069	2.83 ± 0.5	–	–
EVDWEYFYGLLFTSENLKLVHIVC [DFFB]	3.34 ± 0.39	2.56 ± 0.94	–	–
EVKRAFFSKSKELHPDRDPGNPSL [DNAJC4]	3.89 ± 0.12	4.03 ± 0.37	–	–
EVLGPLCLMLLMGTVHCQIVSTQI [PHTF1]	3.27 ± 0.15	3.19 ± 0.2	–	–
EVRYYLRQIVSGLKYLHEQEILHR [PLK2]	3.11 ± 1	2.91 ± 0.58	–	–
EVSADDETPNPPQSAQIACSSPSV [MAGEA10]	5.57 ± 0.28	5.42 ± 0.21	–	–
EVTADDRKVKSTITLDGGVLVHVQ [FABP4]	3.7 ± 0.37	3.99 ± 0.17	–	–
EVTDTGDPIVRPLWWIAPGDETAH [MYORG]	4.25 ± 0.28	4.38 ± 0.35	–	–
EWETEVEMDKLRASDIMEPNLTYV [CLCN6]	3.85 ± 0.32	4.08 ± 0.19	–	–
EYLIRLFQEWEAHRNLSQLPNFAF [TCF25]	2.32 ± 0.7	2.39 ± 0.24	–	–
EYRQKHGVPPLKLCKNLNREAQQY [GLIPR2]	3.42 ± 0.16	3.4 ± 0.28	–	–
FAALRASLVAPLLLELAGEVTDTG [MYORG]	2.13 ± 0.39	2.36 ± 0.4	–	–
FAWSQGHRTVKLVPWSQCLQNFLL [WSB1]	1.99 ± 0.83	2.3 ± 0.031	–	–
